{"source": "patent US20080044423A1", "about": "(AstraZeneca / MedImmune, published 2008)", "binders": {"B1": {"name": "murine IL-17A (R & D Systems) (ligand, UniProt Q62386 22-158, looked up)", "chain": "TVKAAAIIPQSSACPNTEAKDFLQNVKVNLKVFNSLGAKVSSRRPSDYLNRSTSPWTLHRNEDPDRYPSVIWEAQCRHQRCVNAEGKLDHHMNSVLIQQEILVLKREPESCPFTFRVEKMLVGVGCTCVASIVRQAA"}}, "key": {"[1]": {"molecular_target": "T1, cynomolgus IL-17A (cynomolgus, UniProt Q16552 24-155 (human entry), limits assumed)", "T1 chain": "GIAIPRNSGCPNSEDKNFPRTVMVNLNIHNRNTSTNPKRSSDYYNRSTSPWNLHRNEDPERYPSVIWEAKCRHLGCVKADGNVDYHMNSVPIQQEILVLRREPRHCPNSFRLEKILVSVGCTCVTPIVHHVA", "test": "cell-based or functional assay"}, "[2]": {"molecular_target": "human IL-17A (HT1080 assay of Example 1, source not stated) (human, UniProt Q16552 24-155)", "test": "cell-based or functional assay"}, "[3]": {"molecular_target": "T1, cynomolgus IL-17A", "test": "cell-based or functional assay"}, "[4]": {"molecular_target": "T2, human IL-17A derived from the HEK-EBNA expression system (human, UniProt Q16552 24-155)", "test": "cell-based or functional assay"}, "[5]": {"molecular_target": "T3, human IL-17A, untagged, E. coli derived (in house or Peprotech) (human, UniProt Q16552 24-155)", "test": "cell-based or functional assay"}, "[6]": {"molecular_target": "T3, human IL-17A, untagged, E. coli derived …", "test": "cell-based or functional assay", "remark": "listed apart in the source"}, "[7]": {"molecular_target": "T3, human IL-17A, untagged, E. coli derived …", "test": "cell-based or functional assay", "remark": "listed apart in the source"}, "[8]": {"molecular_target": "B1", "test": "DELFIA epitope competition vs biotinylated human IL-17A on immobilised IgG"}, "[9]": {"molecular_target": "T4, human IL-17B (Peprotech) (human, UniProt Q9UHF5 21-180, limits assumed)", "T4 sequence (looked up)": "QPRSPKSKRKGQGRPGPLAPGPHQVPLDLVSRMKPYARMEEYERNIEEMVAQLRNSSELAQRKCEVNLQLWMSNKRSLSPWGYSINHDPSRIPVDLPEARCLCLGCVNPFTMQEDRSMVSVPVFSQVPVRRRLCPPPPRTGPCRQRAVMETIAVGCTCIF", "test": "DELFIA epitope competition vs biotinylated human IL-17A on immobilised IgG"}, "[10]": {"molecular_target": "T5, human IL-17C (R & D Systems) (human, UniProt Q9P0M4 19-197)", "T5 sequence (looked up)": "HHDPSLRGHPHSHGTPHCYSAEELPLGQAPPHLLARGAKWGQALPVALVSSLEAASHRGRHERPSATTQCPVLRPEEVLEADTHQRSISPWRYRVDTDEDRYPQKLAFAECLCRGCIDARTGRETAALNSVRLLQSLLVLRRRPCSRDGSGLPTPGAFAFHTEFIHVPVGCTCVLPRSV", "test": "DELFIA epitope competition vs biotinylated human IL-17A on immobilised IgG"}, "[11]": {"molecular_target": "T6, human IL-17D (Peprotech) (human, UniProt Q8TAD2 18-202, limits assumed)", "T6 sequence (looked up)": "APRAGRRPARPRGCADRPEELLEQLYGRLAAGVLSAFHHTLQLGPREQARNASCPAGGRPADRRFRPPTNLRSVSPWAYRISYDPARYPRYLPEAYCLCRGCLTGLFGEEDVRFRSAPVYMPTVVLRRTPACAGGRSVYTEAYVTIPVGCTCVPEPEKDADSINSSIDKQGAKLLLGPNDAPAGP", "test": "DELFIA epitope competition vs biotinylated human IL-17A on immobilised IgG"}, "[12]": {"molecular_target": "T7, human IL-17E (R & D Systems) (human, UniProt Q9H293 33-177)", "T7 sequence (looked up)": "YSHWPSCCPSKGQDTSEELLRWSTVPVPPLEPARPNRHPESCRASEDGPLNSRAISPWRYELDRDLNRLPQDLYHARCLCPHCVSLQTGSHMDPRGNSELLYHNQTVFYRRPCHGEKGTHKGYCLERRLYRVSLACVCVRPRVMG", "test": "DELFIA epitope competition vs biotinylated human IL-17A on immobilised IgG"}, "[13]": {"molecular_target": "T8, human IL-17F (Peprotech) (human, UniProt Q96PD4 31-163, limits assumed)", "T8 sequence (looked up)": "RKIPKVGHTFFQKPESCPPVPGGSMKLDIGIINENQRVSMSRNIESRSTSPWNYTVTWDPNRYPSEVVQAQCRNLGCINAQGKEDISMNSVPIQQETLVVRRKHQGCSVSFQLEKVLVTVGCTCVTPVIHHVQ", "test": "DELFIA epitope competition vs biotinylated human IL-17A on immobilised IgG"}, "[14]": {"molecular_target": "T2, human IL-17A derived from the HEK-EBNA …", "test": "cell-based or functional assay", "remark": "listed apart in the source"}, "[15]": {"molecular_target": "native IL-17A derived from primary human T cells (human, UniProt Q16552 24-155, N-linked glycosylation)", "test": "cell-based or functional assay"}, "[16]": {"molecular_target": "T3, human IL-17A, untagged, E. coli derived …", "test": "cell-based or functional assay", "remark": "listed apart in the source"}, "[17]": {"molecular_target": "T3, human IL-17A, untagged, E. coli derived …", "test": "cell-based or functional assay", "remark": "listed apart in the source"}, "[18]": {"molecular_target": "T3, human IL-17A, untagged, E. coli derived …", "test": "cell-based or functional assay", "remark": "listed apart in the source"}, "[19]": {"molecular_target": "B1", "test": "HTRF epitope competition vs HIS FLAG IL-17A binding the IgG"}, "[20]": {"molecular_target": "T4, human IL-17B (Peprotech)", "test": "HTRF epitope competition vs HIS FLAG IL-17A binding the IgG"}, "[21]": {"molecular_target": "T5, human IL-17C (R & D Systems)", "test": "HTRF epitope competition vs HIS FLAG IL-17A binding the IgG"}, "[22]": {"molecular_target": "T6, human IL-17D (Peprotech)", "test": "HTRF epitope competition vs HIS FLAG IL-17A binding the IgG"}, "[23]": {"molecular_target": "T7, human IL-17E (R & D Systems)", "test": "HTRF epitope competition vs HIS FLAG IL-17A binding the IgG"}, "[24]": {"molecular_target": "T8, human IL-17F (Peprotech)", "test": "HTRF epitope competition vs HIS FLAG IL-17A binding the IgG"}, "[25]": {"molecular_target": "T2, human IL-17A derived from the HEK-EBNA …", "test": "estimated from pA2 (Schild) analysis in the HT1080 IL-6 release assay"}, "[26]": {"molecular_target": "TINA1 IgG", "test": "DELFIA epitope competition vs biotinylated human IL-17A on immobilised IgG"}, "[27]": {"molecular_target": "TINA10 IgG", "test": "DELFIA epitope competition vs biotinylated human IL-17A on immobilised IgG"}, "[28]": {"molecular_target": "TINA51 IgG", "test": "DELFIA epitope competition vs biotinylated human IL-17A on immobilised IgG"}}, "note": "Several values for one entry are separate records, joined by “and”; a condition that tells them apart may be missing. Equal values may be shown once. Read-outs that look alike come from different tables or passages of the source.", "data": [{"binder": "Antibody 1 IgG1 (antibody, V domains shown, human IgG1, lambda; constant regions not in the listing; also called Antibody 01; TINA12 IgG1) VH: not shown VL: NFMLTQPHSVSESPGKTVTISCTRSSGSLANYYVQWYQQRPGSAPTIVIFANNQRPSGVPDRFSGSIDSSSNSASLTISRLKTEDEADYYCQSYDDSSVVFGGGTKLTVL", "values": [{"measurement": "HT1080 IL-6 release, IgG IC50", "setting": "[1]", "value": 172, "unit": "nM"}, {"measurement": "HT1080 IL-6 release, IgG IC50", "setting": "[2]", "value": 22, "unit": "nM"}, {"measurement": "Fold difference in cross-reactivity (IgG)", "setting": "[3]", "value": 6, "unit": "fold"}, {"measurement": "HT1080 IL-6 release, IgG IC50", "setting": "[3]", "value": 144, "unit": "nM"}, {"measurement": "HT1080 IL-6 release, IgG IC50", "setting": "[4]", "value": 23, "unit": "nM"}, {"measurement": "chondrocyte IL-6 release, geometric mean IC50 at 0.2 nM IL-17A", "setting": "[5]", "value": 29.9, "unit": "nM"}, {"measurement": "chondrocyte IL-6 release, geometric mean IC50 at 2 nM IL-17A", "setting": "[5]", "value": 75.7, "unit": "nM"}, {"measurement": "chondrocyte IL-8 release, geometric mean IC50 at 0.2 nM IL-17A", "setting": "[6]", "value": 18.1, "unit": "nM"}, {"measurement": "chondrocyte IL-8 release, geometric mean IC50 at 2 nM IL-17A", "setting": "[6]", "value": 44.5, "unit": "nM"}, {"measurement": "chondrocyte MMP13 release, IC50 at 2 nM IL-17A", "setting": "[7]", "value": "147 nM and > 400 nM"}, {"measurement": "chondrocyte MMP13 release, geometric mean IC50 at 0.2 nM IL-17A", "setting": "[7]", "value": 110, "unit": "nM"}, {"measurement": "binding result", "setting": "[8]", "value": "no binding (tested: approx 100:1 over labelled IL-17A)"}, {"measurement": "binding result", "setting": "[9]", "value": "no binding (tested: approx 100:1 over labelled IL-17A)"}, {"measurement": "binding result", "setting": "[10]", "value": "no binding (tested: approx 100:1 over labelled IL-17A)"}, {"measurement": "binding result", "setting": "[11]", "value": "no binding (tested: approx 100:1 over labelled IL-17A)"}, {"measurement": "binding result", "setting": "[12]", "value": "no binding (tested: approx 100:1 over labelled IL-17A)"}, {"measurement": "binding result", "setting": "[13]", "value": "no binding (tested: approx 100:1 over labelled IL-17A)"}]}, {"binder": "Antibody 2 IgG1 (antibody, V domains shown, human IgG1, lambda; constant regions not in the listing; also called Antibody 02) VH: not shown VL: NFMLTQPHSVSESPGKTVTISCTRSSGSLANYYVQWYQQRPGSSPTIVIFANNQRPSGVPDRFSGSIDSSSNSASLTISGLKTEDEADYYCQSYDPHSVVFGGGTKLTVL", "values": [{"measurement": "Fold difference in cross-reactivity (IgG)", "setting": "[3]", "value": 12, "unit": "fold"}, {"measurement": "HT1080 IL-6 release, IgG IC50", "setting": "[3]", "value": 18.3, "unit": "nM"}, {"measurement": "HT1080 IL-6 release, IgG IC50", "setting": "[4]", "value": 1.5, "unit": "nM"}, {"measurement": "HT1080 synergised IL-6 release (125 pM human IL-17 + 25 pM human TNFα), IgG IC50", "setting": "[14]", "value": 0.41, "unit": "nM"}, {"measurement": "T cell supernatant induced IL-6 production in HT1080 cells, IC50", "setting": "[15]", "value": 0.25, "unit": "nM"}, {"measurement": "chondrocyte IL-6 release, geometric mean IC50 at 0.2 nM IL-17A", "setting": "[16]", "value": 1.52, "unit": "nM"}, {"measurement": "chondrocyte IL-6 release, geometric mean IC50 at 2 nM IL-17A", "setting": "[16]", "value": 5.51, "unit": "nM"}, {"measurement": "chondrocyte IL-8 release, geometric mean IC50 at 0.2 nM IL-17A", "setting": "[6]", "value": 2.3, "unit": "nM"}, {"measurement": "chondrocyte IL-8 release, geometric mean IC50 at 2 nM IL-17A", "setting": "[6]", "value": 7.91, "unit": "nM"}, {"measurement": "chondrocyte IL-8 release, geometric mean IC50 at 0.2 nM IL-17A", "setting": "[17]", "value": 1.49, "unit": "nM"}, {"measurement": "chondrocyte IL-8 release, geometric mean IC50 at 2 nM IL-17A", "setting": "[17]", "value": 7.18, "unit": "nM"}, {"measurement": "cartilage explant synergised IL-6 response, Mean IC50", "setting": "[18]", "value": 3.39, "unit": "nM"}, {"measurement": "binding result", "setting": "[19]", "value": "no binding"}, {"measurement": "binding result", "setting": "[20]", "value": "no binding"}, {"measurement": "binding result", "setting": "[21]", "value": "no binding"}, {"measurement": "binding result", "setting": "[22]", "value": "no binding"}, {"measurement": "binding result", "setting": "[23]", "value": "no binding"}, {"measurement": "binding result", "setting": "[24]", "value": "no binding"}, {"measurement": "Kd", "setting": "[25]", "value": 0.188, "unit": "nM"}]}, {"binder": "B1", "values": [{"measurement": "Fold difference from Human IL-17A", "setting": "[26]", "value": 12, "unit": "fold"}, {"measurement": "IC50", "setting": "[26]", "value": 98, "unit": "nM"}, {"measurement": "% (printed in the IC50 column, presumably inhibition)", "setting": "[27]", "value": 50, "unit": "%"}, {"measurement": "Fold difference from Human IL-17A", "setting": "[28]", "value": 0.7, "unit": "fold"}, {"measurement": "IC50", "setting": "[28]", "value": 35, "unit": "nM"}]}]}
